The values below come from the RNAGym collection of RNA variant scans (doi:10.7554/elife.80360).

The chains are these.
B1: CPEB3 Ribozyme (parent)
chain: GGGGGCCACAGCAGAAGCGUUCACGUCGCGGCCCCUGUCAGAUUCUGGUGAAUCUGCGAAUUCUGCUGU

Variants of B1 are the subject of the data set. Briefly: self-cleavage, relative activity (ratio to wild type); higher = more cleavage; co-transcriptional.
As for A40U U55A, the self-cleavage came out at 0.936. Consider A40U U55C, for which the self-cleavage came to 0.828. The value for A40U U55G was 0.839.

For G41A U55A, the self-cleavage was found to be 0.596. The result for G41A U55G reads 0.379; that for A42C U43A, 0.778. For A42C U43G, the self-cleavage amounted to 0.703. On to A40U A42U, for which the self-cleavage stood at 0.46. Take A40U A42C: the self-cleavage turned out to be 0.419. As to A40U A42G, the self-cleavage worked out at 0.189. The value for A40G G56U was 0.895; that for A40G G56A was 0.949; that for G41A C57U was 0.368. The result for G41A C57G reads 0.299.

In the case of G41A C57A, the self-cleavage worked out at 0.283. The result for A40G U43G reads 0.614. For the variant A40G U43C, the self-cleavage was determined as 0.764.

With A40G U43A, the self-cleavage was 0.809. For the variant A40U U64G, the self-cleavage amounted to 0.598. The value for A40U U64A was 0.435; that for G41U A59C was 0.412. For the variant G41U A59G, the self-cleavage stood at 0.933. The result for A42C C57U reads 0.376; that for A42C C57G, 0.342. The value for A42C C57A was 0.398. As for A42C A52G, the self-cleavage is 0.919. The value for A42C A52U was 0.96; that for A42C A52C was 0.803. The value for A42C G65A was 0.627. The value for A40C G58C was 0.776; that for A40C G58U was 0.727. As to A40G G58A, the self-cleavage is 0.912. On to A40G G58U, for which the self-cleavage worked out at 0.963. The value for A40G G58C was 0.973; that for G41C C66G was 0.369; that for A42C A60U was 0.459. The result for A40U U61G reads 0.286; that for A40C U67G, 0.744; that for A40C U67A, 0.518. The value for A40C U64A was 0.357; that for A40U U53C was 0.296. Consider A42C G56U, for which the self-cleavage came to 0.568.

For A42C G56C, the self-cleavage was found to be 0.325. Regarding A40G U61G, the self-cleavage is 0.823.

Consider A40G U61C, for which the self-cleavage turned out to be 0.48. Regarding A40G U61A, the self-cleavage was 0.863. The result for G41U U46A reads 0.947.

Consider G41U U46G, for which the self-cleavage stood at 0.887. As for G41U U46C, the self-cleavage is 0.752. The value for G41C U62C was 0.365; that for G41C U62G was 0.363; that for G41A A52G was 0.716. With G41A A52U, the self-cleavage came to 0.683. As for A40C U46A, the self-cleavage worked out at 0.866. On to A40C U46G, for which the self-cleavage amounted to 0.802. Turning to A40C U46C, the self-cleavage is 0.273.

G41C U53A: the self-cleavage came to 0.463. For G41C U53C, the self-cleavage worked out at 0.283. The value for G41U U43G was 0.267; that for G41U U43C was 0.357; that for G41U U43A was 0.3. The result for G41C G56A reads 0.667; that for G41C G56U, 0.369; that for G41C U55C, 0.394. The result for A40U G68C reads 0.876; that for A40U G68U, 0.877.

As for A40U G68A, the self-cleavage turned out to be 0.937.

Turning to G41U U61C, the self-cleavage turned out to be 0.402. In the case of G41U U61A, the self-cleavage was found to be 0.64. The value for G41U U61G was 0.314. As for G41C U64A, the self-cleavage was 0.369. In the case of G41C U64G, the self-cleavage came out at 0.426. Regarding G41C G65U, the self-cleavage amounted to 0.327.

Regarding G41C G65A, the self-cleavage turned out to be 0.426. Take G41A U49G: the self-cleavage worked out at 0.859. G41A U49C: the self-cleavage came out at 0.825. For the variant A40C G68A, the self-cleavage was found to be 0.882. The result for A40C U62C reads 0.255; that for A40C U62A, 0.385. A40C U62G: the self-cleavage was 0.352. The result for G41U C66A reads 0.441; that for G41U C66G, 0.428. In the case of G41C U44A, the self-cleavage is 0.377. On to G41C U44C, for which the self-cleavage was found to be 0.342. The value for G41C U44G was 0.317.

For G41U U69A, the self-cleavage amounted to 0.995. For G41U U69G, the self-cleavage is 1.02. Regarding G41A U62C, the self-cleavage amounted to 0.383. For the variant G41A U62G, the self-cleavage came out at 0.422. The value for G41A U62A was 0.474; that for G41U U49C was 0.849. The result for G41A A42G reads 0.855; that for G41A A42C, 0.588; that for A40G U44G, 0.843. Consider A40G U44C, for which the self-cleavage worked out at 0.485. Consider G41C A60C, for which the self-cleavage came to 0.262.

Consider G41C A60U, for which the self-cleavage was found to be 0.366. The result for G41C A60G reads 0.304; that for G41C G48C, 0.869; that for G41C G48U, 0.966. As for G41A G65C, the self-cleavage is 0.261. The value for G41A G65U was 0.379; that for G41C U49A was 0.988; that for G41C U49C was 0.871. As for A42C G47A, the self-cleavage was determined as 0.921. Turning to G41U U64C, the self-cleavage amounted to 0.382. Consider G41U U64A, for which the self-cleavage was determined as 0.501.

In the case of G41U U64G, the self-cleavage was 0.441. The value for A40G G48A was 1; that for A40G G48U was 0.969. Consider A40G G48C, for which the self-cleavage came out at 0.98. Take G41U C54A: the self-cleavage is 0.972.

As to G41U C54U, the self-cleavage was determined as 0.94. Turning to G41U C54G, the self-cleavage is 0.95. As for G41C A52C, the self-cleavage came out at 0.332.

As to A40G U69C, the self-cleavage was 0.718.

Consider A40G U69G, for which the self-cleavage turned out to be 1.02.

With A40G U69A, the self-cleavage stood at 1.01.

In the case of A40U C54G, the self-cleavage is 0.457. The result for A40U C54U reads 0.759; that for A40G U62C, 0.649; that for A40G A59C, 0.568.

As for A40G A59G, the self-cleavage amounted to 0.935. In the case of A40G C63A, the self-cleavage amounted to 0.689. For the variant A40G C63U, the self-cleavage came out at 0.915. The result for A40G C63G reads 0.563; that for A40G C57G, 0.326. For the variant G41U G47U, the self-cleavage is 0.999. Take G41U G47C: the self-cleavage stood at 0.967. For the variant A42C G50C, the self-cleavage was found to be 0.858. The result for A42C G50A reads 0.952; that for A42C U44A, 0.83; that for A40G U49C, 0.877. For A40G U49A, the self-cleavage turned out to be 0.969. Turning to A40G U49G, the self-cleavage was 0.999. The value for A40G G68C was 0.953.

As to A40G G68A, the self-cleavage is 0.954.

G41U A60G: the self-cleavage was 0.612. As for G41U A60U, the self-cleavage stood at 0.374. The result for A40C U55C reads 0.515; that for A40C U55A, 0.697; that for A42C C54G, 0.73. G41A G48A: the self-cleavage is 0.989. Take G41A U69A: the self-cleavage came to 0.912. The value for G41A U69G was 1. The result for G41A U69C reads 1.03. For A40U G47C, the self-cleavage was 0.88.

Regarding G41A U43C, the self-cleavage is 0.416. The value for G41A U43A was 0.335; that for G41A U53A was 0.65. The value for G41A U53G was 0.566. For G41A A51U, the self-cleavage worked out at 0.511. With G41A A60U, the self-cleavage came out at 0.278. The result for G41A A60C reads 0.295; that for G41U G68C, 0.93; that for G41U G68A, 0.931. Turning to G41U G68U, the self-cleavage worked out at 0.972. The result for A40G A51U reads 0.891; that for A40G A51C, 0.927; that for A40C U43G, 0.281.

Consider A40C U43A, for which the self-cleavage was 0.356. The value for A40C U43C was 0.314; that for A40U C63U was 0.77; that for A40U C63G was 0.392. The result for A40U A52G reads 0.832; that for A40C U69A, 0.865; that for A40C U69C, 0.965.
